Results published in the supplement of paper PMC9732359.
± gives the uncertainty stated by the source.

Test: protein stability index of a GFP-peptide fusion (yeast GPS) (PSI 1-4); higher = more stable; sorted into four equal gates, so the index is relative within each strain
Method in brief: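 The protein stability index combines read frequencies across sorting gates, each weighted by its gate number and then summed. To obtain those frequencies, a pooled yeast library of GFP fusions to tiled 17-residue yeast protein peptides, on a plasmid also expressing Cherry, was grown to mid-log phase in leucine-free medium. The cells were sorted into four equal gates by GFP/Cherry ratio before plasmid amplification by PCR and Illumina sequencing.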

EVEKAHPIRLYTRYLDR [PRP8]
protein stability index (doa10∆): 3.11 ± 0.082
protein stability index (pdr5∆): 2.51 ± 0.068
protein stability index (san1∆): 2.35 ± 0.078
protein stability index (ubr1∆): 2.94 ± 0.048

MPDMNEMMKMMQDPQMQ [SRP54]
protein stability index (doa10∆): 3.22 ± 0.19
protein stability index (pdr5∆): 3.45 ± 0.21
protein stability index (san1∆): 3.5 ± 0.083
protein stability index (ubr1∆): 3.33 ± 0.084

HIVYSLLVNPDIDLETY [YML103C/NUP188]
protein stability index (doa10∆): 2.52 ± 0.049
protein stability index (pdr5∆): 2.34 ± 0.042
protein stability index (san1∆): 2.52 ± 0.062
protein stability index (ubr1∆): 2.45 ± 0.035

DMNSNLQVLKRERDGIK [SMC1]
protein stability index (doa10∆): 3.01 ± 0.093
protein stability index (pdr5∆): 2.92 ± 0.065
protein stability index (san1∆): 3.03 ± 0.047
protein stability index (ubr1∆): 2.78 ± 0.078

PSYVHFKVQIIELLSYL [YML103C/NUP188]
protein stability index (doa10∆): 1.41 ± 0.063
protein stability index (pdr5∆): 2.27 ± 0.065
protein stability index (san1∆): 1.8 ± 0.072
protein stability index (ubr1∆): 2.04 ± 0.05

MTSIGTGYDLSNSVFSP [PRE10]
protein stability index (doa10∆): 2.77 ± 0.085
protein stability index (pdr5∆): 2.91 ± 0.11
protein stability index (san1∆): 2.23 ± 0.27
protein stability index (ubr1∆): 2.8 ± 0.12

FSNVNELQEKNVELLNC [YIL149C/MLP2]
protein stability index (doa10∆): 3.09 ± 0.082
protein stability index (pdr5∆): 3.29 ± 0.13
protein stability index (san1∆): 3.06 ± 0.083
protein stability index (ubr1∆): 3.1 ± 0.075

LHIHLNQILQTEIENYL [YDL116W/NUP84]
protein stability index (doa10∆): 1.88 ± 0.054
protein stability index (pdr5∆): 2.15 ± 0.042
protein stability index (san1∆): 2.03 ± 0.075
protein stability index (ubr1∆): 1.86 ± 0.043

MGYSGWCTTCKSAENII [RET1]
protein stability index (doa10∆): 3.21 ± 0.15
protein stability index (pdr5∆): 2.99 ± 0.14
protein stability index (san1∆): 3.22 ± 0.079
protein stability index (ubr1∆): 3.19 ± 0.094

ADVSKLMYSITFHHHGR [SRB2]
protein stability index (doa10∆): 2.82 ± 0.053
protein stability index (pdr5∆): 3.01 ± 0.056
protein stability index (san1∆): 2.79 ± 0.049
protein stability index (ubr1∆): 2.98 ± 0.04

SSQKDGNDFKFNYQGDE [REC8]
protein stability index (doa10∆): 3.41 ± 0.067
protein stability index (pdr5∆): 3.45 ± 0.072
protein stability index (san1∆): 3.43 ± 0.051
protein stability index (ubr1∆): 3.4 ± 0.058

TSTNPNGLGTSHINTNV [ARP7]
protein stability index (doa10∆): 3.14 ± 0.068
protein stability index (pdr5∆): 3.28 ± 0.061
protein stability index (san1∆): 2.96 ± 0.061
protein stability index (ubr1∆): 3.33 ± 0.057

GNKNQFEPSISRSNFQG [LRP1]
protein stability index (doa10∆): 2.76 ± 0.13
protein stability index (pdr5∆): 2.7 ± 0.16
protein stability index (san1∆): 2.74 ± 0.073
protein stability index (ubr1∆): 2.34 ± 0.21

HLVSNELEQLSSEALEA [RPL10]
protein stability index (doa10∆): 1.21 ± 0.053
protein stability index (pdr5∆): 1.39 ± 0.042
protein stability index (san1∆): 1.3 ± 0.14
protein stability index (ubr1∆): 1.39 ± 0.031

HLLYPPHIIAVACLFIT [SSN8]
protein stability index (doa10∆): 1.26 ± 0.053
protein stability index (pdr5∆): 1.27 ± 0.038
protein stability index (san1∆): 1.32 ± 0.1
protein stability index (ubr1∆): 1.34 ± 0.052

LQISDIPAAGNNRSVSM [SRB5]
protein stability index (doa10∆): 2.77 ± 0.075
protein stability index (pdr5∆): 2.35 ± 0.07
protein stability index (san1∆): 2.4 ± 0.083
protein stability index (ubr1∆): 2.8 ± 0.06

RLTVSARDAPTKISTLA [QCR2]
protein stability index (doa10∆): 3.2 ± 0.096
protein stability index (pdr5∆): 3.17 ± 0.069
protein stability index (san1∆): 3.04 ± 0.066
protein stability index (ubr1∆): 3.19 ± 0.055

IKTFFTQKDSARVSPRN [YAR002W/NUP60]
protein stability index (doa10∆): 3.22 ± 0.097
protein stability index (pdr5∆): 3.49 ± 0.1
protein stability index (san1∆): 3.18 ± 0.086
protein stability index (ubr1∆): 3.02 ± 0.064

LVFQLAKNFSAQKRVVS [SRB8]
protein stability index (doa10∆): 1.69 ± 0.053
protein stability index (pdr5∆): 2.06 ± 0.072
protein stability index (san1∆): 1.86 ± 0.076
protein stability index (ubr1∆): 1.94 ± 0.058

GKDRIAINVFPEGYKAK [RPO31]
protein stability index (doa10∆): 2.37 ± 0.061
protein stability index (pdr5∆): 2.28 ± 0.079
protein stability index (san1∆): 2.5 ± 0.07
protein stability index (ubr1∆): 2.68 ± 0.072

WHGVHRNPARLMETLRT [RPB2]
protein stability index (doa10∆): 1.35 ± 0.073
protein stability index (pdr5∆): 1.3 ± 0.066
protein stability index (san1∆): 1.55 ± 0.18
protein stability index (ubr1∆): 1.2 ± 0.045

MGDELTRSHFNALYDTL [RPN6]
protein stability index (doa10∆): 2.3 ± 0.048
protein stability index (pdr5∆): 2.45 ± 0.067
protein stability index (san1∆): 2.67 ± 0.051
protein stability index (ubr1∆): 2.74 ± 0.044

TSSTPSPIKNGSCTRQL [YOR098C/NUP1]
protein stability index (doa10∆): 3.26 ± 0.064
protein stability index (pdr5∆): 3.02 ± 0.045
protein stability index (san1∆): 2.68 ± 0.046
protein stability index (ubr1∆): 3.09 ± 0.049

NQEDEKNLQRESCEDIL [RTT102]
protein stability index (ubr1∆): 3.17 ± 0.2

SDKAQLNVVMKNLERLR [SMC4]
protein stability index (doa10∆): 3.28 ± 0.099
protein stability index (pdr5∆): 3.46 ± 0.15
protein stability index (san1∆): 3.13 ± 0.11
protein stability index (ubr1∆): 2.72 ± 0.28

AMFAALQQKQQQRFQAL [SWI1]
protein stability index (doa10∆): 1.36 ± 0.051
protein stability index (pdr5∆): 1.62 ± 0.053
protein stability index (san1∆): 1.3 ± 0.12
protein stability index (ubr1∆): 1.62 ± 0.038

ALSMGKSSAFVIDIGAS [ARP7]
protein stability index (doa10∆): 1.47 ± 0.043
protein stability index (pdr5∆): 1.95 ± 0.069
protein stability index (san1∆): 1.62 ± 0.092
protein stability index (ubr1∆): 2.1 ± 0.059

MENEFFKVQELLHSKPS [NAS6]
protein stability index (doa10∆): 2.2 ± 0.14
protein stability index (pdr5∆): 2.02 ± 0.082
protein stability index (san1∆): 2.68 ± 0.14
protein stability index (ubr1∆): 2.3 ± 0.085

NDVQGIDDVQTIKVVKR [RPP1]
protein stability index (doa10∆): 3.08 ± 0.064
protein stability index (pdr5∆): 2.62 ± 0.066
protein stability index (san1∆): 2.69 ± 0.053
protein stability index (ubr1∆): 2.81 ± 0.056

SPLQSSKSKQSFTQGEL [YMR129W/POM152]
protein stability index (doa10∆): 2.88 ± 0.055
protein stability index (pdr5∆): 2.8 ± 0.061
protein stability index (san1∆): 2.73 ± 0.055
protein stability index (ubr1∆): 2.95 ± 0.05

NPNNVNVQTQYREAPVI [RET1]
protein stability index (doa10∆): 2.5 ± 0.085
protein stability index (pdr5∆): 2.73 ± 0.045
protein stability index (san1∆): 2.48 ± 0.1
protein stability index (ubr1∆): 2.63 ± 0.057

YLSDLKQFFQMTPLLVN [PCI8]
protein stability index (doa10∆): 1.69 ± 0.043
protein stability index (pdr5∆): 1.74 ± 0.044
protein stability index (san1∆): 1.51 ± 0.066
protein stability index (ubr1∆): 1.51 ± 0.026

VGVHIADVTHFVKPGTA [DIS3]
protein stability index (doa10∆): 2.51 ± 0.055
protein stability index (pdr5∆): 2.14 ± 0.058
protein stability index (san1∆): 2.9 ± 0.052
protein stability index (ubr1∆): 2.76 ± 0.063

NRAEGPEELARILQQLK [RGR1]
protein stability index (doa10∆): 3.21 ± 0.11
protein stability index (pdr5∆): 3.17 ± 0.19
protein stability index (san1∆): 3.19 ± 0.12
protein stability index (ubr1∆): 3.62 ± 0.097

DVSIEELLREWLETYSE [IRR1]
protein stability index (doa10∆): 3.38 ± 0.056
protein stability index (pdr5∆): 3.34 ± 0.075
protein stability index (san1∆): 3.56 ± 0.067
protein stability index (ubr1∆): 3.33 ± 0.047

TYRCSIKNLPADVSKLM [SRB2]
protein stability index (doa10∆): 2.56 ± 0.061
protein stability index (pdr5∆): 2.83 ± 0.05
protein stability index (san1∆): 2.33 ± 0.05
protein stability index (ubr1∆): 2.69 ± 0.044

GITGNLDRIPMHSYFIF [COB]
protein stability index (doa10∆): 2.13 ± 0.12
protein stability index (pdr5∆): 2.19 ± 0.085
protein stability index (san1∆): 2.39 ± 0.072
protein stability index (ubr1∆): 2.43 ± 0.12

LWPVAIGLIALSATGTR [YJR042W/NUP85]
protein stability index (doa10∆): 1.75 ± 0.25
protein stability index (san1∆): 1.36 ± 0.23

KRVSGTSQHSDSLTQNN [YOR098C/NUP1]
protein stability index (doa10∆): 2.5 ± 0.088
protein stability index (pdr5∆): 2.71 ± 0.055
protein stability index (san1∆): 2.73 ± 0.072
protein stability index (ubr1∆): 2.68 ± 0.054

NNVKQMVMAGSKGSFIN [RPO21]
protein stability index (doa10∆): 1.57 ± 0.091
protein stability index (pdr5∆): 1.78 ± 0.095
protein stability index (ubr1∆): 1.94 ± 0.068

RFNFISKYFIIDSFFLY [YMR129W/POM152]
protein stability index (doa10∆): 1.58 ± 0.061
protein stability index (pdr5∆): 1.24 ± 0.072
protein stability index (san1∆): 1.31 ± 0.12
protein stability index (ubr1∆): 1.12 ± 0.059

IYLSQNELTDAIALAVR [RPN1]
protein stability index (doa10∆): 2.58 ± 0.045
protein stability index (pdr5∆): 2.67 ± 0.052
protein stability index (san1∆): 2.88 ± 0.039
protein stability index (ubr1∆): 2.59 ± 0.032

NSSMRYGYWFDCRMGNF [AAR2]
protein stability index (san1∆): 1.83 ± 0.12

SELLGGTFKSTLDREYI [QCR2]
protein stability index (doa10∆): 3.15 ± 0.093
protein stability index (pdr5∆): 3.17 ± 0.11
protein stability index (san1∆): 2.87 ± 0.089
protein stability index (ubr1∆): 3.1 ± 0.05

AHMGVLLVLLQDVIKVL [SWP82]
protein stability index (doa10∆): 1.51 ± 0.068
protein stability index (pdr5∆): 1.58 ± 0.084
protein stability index (san1∆): 1.45 ± 0.1
protein stability index (ubr1∆): 1.51 ± 0.057

GVSSPGFSPTSPTYSPT [RPO21]
protein stability index (doa10∆): 2.82 ± 0.069
protein stability index (pdr5∆): 3 ± 0.058
protein stability index (san1∆): 2.82 ± 0.057
protein stability index (ubr1∆): 3.05 ± 0.055

NLYDGAEHKYMPYTINE [BRR2]
protein stability index (doa10∆): 3.08 ± 0.071
protein stability index (pdr5∆): 3.05 ± 0.071
protein stability index (san1∆): 3.13 ± 0.048
protein stability index (ubr1∆): 3.28 ± 0.062

ESFPDDIPLAKALDNAC [CDC53]
protein stability index (doa10∆): 2.58 ± 0.07
protein stability index (pdr5∆): 2.97 ± 0.058
protein stability index (san1∆): 2.67 ± 0.055
protein stability index (ubr1∆): 2.8 ± 0.045

ISQPKSMSGRISAKDMG [BRR2]
protein stability index (doa10∆): 3.1 ± 0.06
protein stability index (pdr5∆): 3.16 ± 0.055
protein stability index (san1∆): 3.08 ± 0.058
protein stability index (ubr1∆): 3.15 ± 0.046

TRDEKDPKRLFEGNALI [RPS9A]
protein stability index (doa10∆): 3.55 ± 0.2
protein stability index (pdr5∆): 3.6 ± 0.12
protein stability index (san1∆): 2.97 ± 0.18
protein stability index (ubr1∆): 3.71 ± 0.15

IKNVIVSNRVAAPARAG [RPP0]
protein stability index (doa10∆): 1.82 ± 0.13
protein stability index (pdr5∆): 2.44 ± 0.11
protein stability index (san1∆): 3 ± 0.14
protein stability index (ubr1∆): 1.96 ± 0.22

DAGSNQYYVTQHDKMVD [SWI1]
protein stability index (doa10∆): 3.04 ± 0.058
protein stability index (pdr5∆): 2.99 ± 0.046
protein stability index (san1∆): 2.95 ± 0.068
protein stability index (ubr1∆): 2.74 ± 0.045

IFSLLTGYPDEPPAGVA [CYT1]
protein stability index (doa10∆): 2.87 ± 0.18
protein stability index (pdr5∆): 2.52 ± 0.14
protein stability index (san1∆): 2.4 ± 0.13
protein stability index (ubr1∆): 2.54 ± 0.09
